Experimental data taken from patent US20250043016A1 (SANYOU BIOPHARMACEUTICALS, published 2025).

Biological target: T1, recombinant human TNFR2 (SinoBiological, 10417-H03H) (human, UniProt P20333 23-257)
T1 construct: Bought protein; also called human recombinant TNFR2
T1 sequence (looked up): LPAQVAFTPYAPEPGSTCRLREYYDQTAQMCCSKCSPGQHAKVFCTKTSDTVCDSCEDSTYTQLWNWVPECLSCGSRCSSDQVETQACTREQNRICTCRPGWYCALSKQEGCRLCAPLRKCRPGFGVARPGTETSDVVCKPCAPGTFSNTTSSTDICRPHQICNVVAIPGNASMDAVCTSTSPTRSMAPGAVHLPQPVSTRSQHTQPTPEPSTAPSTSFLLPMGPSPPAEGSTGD
Assay: ELISA on plate-coated recombinant human TNFR2, detection with anti-camelid-VHH-HRP; the axis is the lysate concentration
Protocol: The prepared positive clone lysate was subjected to ELISA affinity detection. The specific method was as follows: a 96-well ELISA plate was coated with 2 μg/mL recombinant human TNFR2 and incubated overnight at 4° C.; the next day, the well plate was washed 3 times with PBST, 5% skim milk was added, and blocking was performed for 2 h; subsequently, the well plate was washed 3 times with PBST, gradiently diluted positive clone lysates were added, and incubation was performed for 1 h; subsequently, the well plate was washed 3 times with PBST, Rabbit Anti-Camelid-VHH-HRP (Genescript, A01861-200) diluted at 1:8000 was added, and incubation was performed for 1 h; subsequently, the well plate was washed 6 times with PBST, TMB (SurModics, TMBS-1000-01) was added for color development in the dark for 5-10 min, and 2 M HCl was added to stop the reaction according to the color development results; the values at OD450 were read by a microplate reader (Molecular Devices, SpecterMax 190) and fitted by four parameters.

B1: NB92-161 VHH (positive clone lysate from E. coli) (VHH)
VHH: EVQLVESGGGLVQPGGSLRLSCAASGSIFSINDMGWYRQAPGKQRELVAAIGRGGGSTNYADSVKGRFTISRDNAKNTVYLQMNSLKPEDTAVYYCHAEISQLTWAFRDYWGQGTQVTVSS
notes: Tested as crude bacterial lysate from the phage display vector
- EC50 (read off the curve): ~0.2 µg/mL
